# B1: parathyroid hormone (peptide, UniProt P01270 32-115, looked up)
# Parathyroid hormone: SVSEIQLMHNLGKHLNSMERVEWLRKKLQDVHNFVALGAPLAPRDAGSQRPRKKEDNVLVESHEKSLGEADKADVNVLTKAKSQ
# modifications: Parathyroid hormone
# Experiments:
# [1] = tested on: patient with adult periodontitis; assay: Treatment of patient with periodontal disease prior to dental implant therapy; type: in vivo, human; settings: person, 20 μg once-daily subcutaneous for 3 months prior to implant surgery
# Source text: A person presents with a history of adult periodontitis. The patient has experienced significant alveolar bone loss confirmed radiographically, and has a number of tooth sites with pocket probing depth measurements of about 7 mm. The patient has discussed with their dentist possible extraction of severely-affected teeth and their replacement with dental implants, but the prospects for success are diminished in view of the bone loss that has occurred. Standard periodontal care is provided, including scaling and root planning, and those teeth with poor prognosis are extracted. Prior to implant surgery, the patient is administered 20 μg of hPTH(1-34) once-daily by subcutaneous injection for 3 months prior to implant surgery.
# [2] = tested on: systemic bone loss associated with osteoporosis; settings: R. M. Neer et al., NEJM 2001; cited from earlier work
Molecule,complications post placement of the implants [1],BMD [2],risk of vertebral and non-vertebral bone fracture [2]
"CC[C@H](C)[C@H](NC(=O)[C@H](CCC(=O)O)NC(=O)[C@H](CO)NC(=O)[C@@H](NC(=O)[C@@H](N)CO)C(C)C)C(=O)N[C@@H](CCC(N)=O)C(=O)N[C@@H](CC(C)C)C(=O)N[C@@H](CCSC)C(=O)N[C@@H](Cc1cnc[nH]1)C(=O)N[C@@H](CC(N)=O)C(=O)N[C@@H](CC(C)C)C(=O)NCC(=O)N[C@@H](CCCCN)C(=O)N[C@@H](Cc1cnc[nH]1)C(=O)N[C@@H](CC(C)C)C(=O)N[C@@H](CC(N)=O)C(=O)N[C@@H](CO)C(=O)N[C@@H](CCSC)C(=O)N[C@@H](CCC(=O)O)C(=O)N[C@@H](CCCN=C(N)N)C(=O)N[C@H](C(=O)N[C@@H](CCC(=O)O)C(=O)N[C@@H](Cc1c[nH]c2ccccc12)C(=O)N[C@@H](CC(C)C)C(=O)N[C@@H](CCCN=C(N)N)C(=O)N[C@@H](CCCCN)C(=O)N[C@@H](CCCCN)C(=O)N[C@@H](CC(C)C)C(=O)N[C@@H](CCC(N)=O)C(=O)N[C@@H](CC(=O)O)C(=O)N[C@H](C(=O)N[C@@H](Cc1cnc[nH]1)C(=O)N[C@@H](CC(N)=O)C(=O)N[C@@H](Cc1ccccc1)C(=O)O)C(C)C)C(C)C [hPTH(1-34), human PTH(1-34)]",No complications,–,–
B1,–,increases BMD,reduces the risk of vertebral and non-vertebral bone fracture
